Data published in article PMC9482650, “Quantitative fragmentomics allow affinity mapping of interactomes” (Nature Communications, 2022).

Legend:
Experiment in all cases: holdup assay
Parameters in all cases: key: below the threshold = too weak to quantify, mostly under pKd 3.1 to 4
[1] = molecular target: T1, GRIP1_7, Q9Y3R0
T1 sequence (Q9Y3R0 999-1096, limits assumed, looked up): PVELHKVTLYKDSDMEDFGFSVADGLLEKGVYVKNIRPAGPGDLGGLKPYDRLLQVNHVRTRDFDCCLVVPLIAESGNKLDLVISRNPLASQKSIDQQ

[2] = molecular target: GORASP2, Q9H8Y8
[3] = molecular target: MAGI2_5, Q86UL8
Sequence of MAGI2_5, Q86UL8 (Q86UL8 915-1017): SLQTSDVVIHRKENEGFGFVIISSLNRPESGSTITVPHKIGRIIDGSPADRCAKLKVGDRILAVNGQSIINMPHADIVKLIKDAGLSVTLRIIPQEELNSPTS

[4] = molecular target: T2, LRRC7, Q96NW7
T2 sequence (Q96NW7 1440-1537, limits assumed, looked up): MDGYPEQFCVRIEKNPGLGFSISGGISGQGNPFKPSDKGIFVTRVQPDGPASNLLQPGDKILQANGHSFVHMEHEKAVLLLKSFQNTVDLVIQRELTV

[5] = molecular target: T3, MPDZ_5, O75970
T3 sequence (O75970 695-796, limits assumed, looked up): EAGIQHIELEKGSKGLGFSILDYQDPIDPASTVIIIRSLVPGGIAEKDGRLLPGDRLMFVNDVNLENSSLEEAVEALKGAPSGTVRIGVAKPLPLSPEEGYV

[6] = molecular target: TJP1_3, Q07157
Sequence of TJP1_3, Q07157 (Q07157 416-512): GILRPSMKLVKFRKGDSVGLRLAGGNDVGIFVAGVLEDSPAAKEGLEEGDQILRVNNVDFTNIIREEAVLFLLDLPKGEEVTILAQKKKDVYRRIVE

[7] = molecular target: Inadl_4, Q8NI35
Sequence of Inadl_4, Q8NI35 (Q8NI35 547-651): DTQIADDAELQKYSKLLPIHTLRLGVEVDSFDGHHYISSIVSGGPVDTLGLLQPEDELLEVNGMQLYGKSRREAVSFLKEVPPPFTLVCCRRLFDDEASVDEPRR

[8] = molecular target: Inadl_6, Q8NI35
Sequence of Inadl_6, Q8NI35 (Q8NI35 1058-1167): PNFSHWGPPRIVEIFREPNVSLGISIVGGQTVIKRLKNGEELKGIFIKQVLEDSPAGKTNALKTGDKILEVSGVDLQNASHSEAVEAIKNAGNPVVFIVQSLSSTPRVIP

[9] = molecular target: GRIP2_3, Q9C0E4
Sequence of GRIP2_3, Q9C0E4 (Q9C0E4 238-339): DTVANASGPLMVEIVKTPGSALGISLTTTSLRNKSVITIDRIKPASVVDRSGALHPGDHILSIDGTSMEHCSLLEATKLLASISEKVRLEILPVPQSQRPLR

[10] = molecular target: T4, RAPGEF6, Q8TEU7
T4 sequence (Q8TEU7 525-625, limits assumed, looked up): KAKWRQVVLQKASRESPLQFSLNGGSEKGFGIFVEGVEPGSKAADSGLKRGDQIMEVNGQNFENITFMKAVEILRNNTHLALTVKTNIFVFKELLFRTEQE

[11] = molecular target: T5, PCLO, Q9Y6V0
T5 sequence (Q9Y6V0 4491-4600, limits assumed, looked up): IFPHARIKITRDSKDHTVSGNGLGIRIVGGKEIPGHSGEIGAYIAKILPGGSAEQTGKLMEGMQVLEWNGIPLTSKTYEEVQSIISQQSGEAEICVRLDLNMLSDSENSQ

[12] = molecular target: FRMPD3, Q5JV73
Sequence of FRMPD3, Q5JV73 (Q5JV73 12-100): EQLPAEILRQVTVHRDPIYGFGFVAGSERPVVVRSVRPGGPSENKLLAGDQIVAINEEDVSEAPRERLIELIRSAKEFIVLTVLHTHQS

[13] = molecular target: Inadl_9, Q8NI35
Sequence of Inadl_9, Q8NI35 (Q8NI35 1530-1615): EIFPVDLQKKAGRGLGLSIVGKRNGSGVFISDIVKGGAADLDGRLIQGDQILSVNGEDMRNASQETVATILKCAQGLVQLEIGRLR

[14] = molecular target: T6, GRIP1_3, Q9Y3R0
T6 sequence (Q9Y3R0 247-346, limits assumed, looked up): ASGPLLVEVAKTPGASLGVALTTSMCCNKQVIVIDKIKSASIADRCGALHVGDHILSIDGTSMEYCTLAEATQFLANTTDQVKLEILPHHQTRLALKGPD

[15] = molecular target: MAGI1_2, Q96QZ7
Sequence of MAGI1_2, Q96QZ7 (Q96QZ7 456-580): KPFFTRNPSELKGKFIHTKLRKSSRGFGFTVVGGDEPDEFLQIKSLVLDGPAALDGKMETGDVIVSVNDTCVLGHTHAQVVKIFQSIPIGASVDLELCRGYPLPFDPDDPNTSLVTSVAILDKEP

[16] = molecular target: TJP2_1, Q9UDY2
Sequence of TJP2_1, Q9UDY2 (Q9UDY2 24-128): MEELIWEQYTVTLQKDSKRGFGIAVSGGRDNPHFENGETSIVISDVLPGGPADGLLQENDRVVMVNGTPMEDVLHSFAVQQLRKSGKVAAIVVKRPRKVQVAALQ

[17] = molecular target: DLG4_1, P78352
Sequence of DLG4_1, P78352 (P78352 62-152): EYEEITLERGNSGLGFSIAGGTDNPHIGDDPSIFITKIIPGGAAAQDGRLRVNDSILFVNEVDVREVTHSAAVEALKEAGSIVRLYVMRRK

[18] = molecular target: T7, FRMPD1, Q5SYB0
T7 sequence (Q5SYB0 52-145, limits assumed, looked up): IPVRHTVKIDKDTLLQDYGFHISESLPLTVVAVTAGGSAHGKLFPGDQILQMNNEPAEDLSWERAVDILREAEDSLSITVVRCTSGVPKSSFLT

[19] = molecular target: GOPC, Q9HD26
[20] = molecular target: DLG2_2, Q15700
Sequence of DLG2_2, Q15700 (Q15700 189-283): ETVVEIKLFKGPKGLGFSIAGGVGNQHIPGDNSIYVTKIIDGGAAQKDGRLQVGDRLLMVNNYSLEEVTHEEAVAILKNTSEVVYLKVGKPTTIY

[21] = molecular target: T8, MPP7, Q5T2T1
T8 sequence (Q5T2T1 134-230, limits assumed, looked up): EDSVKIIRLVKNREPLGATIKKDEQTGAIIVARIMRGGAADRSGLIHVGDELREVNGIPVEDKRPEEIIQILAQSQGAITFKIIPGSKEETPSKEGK

[22] = molecular target: ARHGEF12, Q9NZN5-2
Sequence of ARHGEF12, Q9NZN5-2 (Q9NZN5 other isoform, or with tags, fused parts or gaps): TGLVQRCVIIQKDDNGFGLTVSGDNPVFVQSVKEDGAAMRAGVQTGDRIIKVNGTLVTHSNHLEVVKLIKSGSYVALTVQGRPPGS

[23] = molecular target: LAP2, Q96RT1
Sequence of LAP2, Q96RT1 (Q96RT1 other isoform, or with tags, fused parts or gaps): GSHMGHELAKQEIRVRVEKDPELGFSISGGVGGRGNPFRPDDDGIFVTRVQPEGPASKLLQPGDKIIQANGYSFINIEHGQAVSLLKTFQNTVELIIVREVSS

[24] = molecular target: DLG1_2, Q12959
Sequence of DLG1_2, Q12959 (Q12959 314-412): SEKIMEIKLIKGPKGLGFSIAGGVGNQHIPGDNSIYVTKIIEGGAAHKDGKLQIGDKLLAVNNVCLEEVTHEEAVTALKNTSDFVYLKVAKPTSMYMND

[25] = molecular target: Inadl_5, Q8NI35
Sequence of Inadl_5, Q8NI35 (Q8NI35 673-780): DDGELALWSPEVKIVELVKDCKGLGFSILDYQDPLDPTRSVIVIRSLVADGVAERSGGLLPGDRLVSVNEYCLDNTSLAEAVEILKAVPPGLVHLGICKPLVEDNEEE

[26] = molecular target: PARD3_3, Q8TEW0
Sequence of PARD3_3, Q8TEW0 (Q8TEW0 582-685): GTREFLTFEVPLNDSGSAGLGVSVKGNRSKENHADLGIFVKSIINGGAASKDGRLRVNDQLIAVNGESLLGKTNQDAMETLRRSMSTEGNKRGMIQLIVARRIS

[27] = molecular target: T9, DLG3_2, Q92796
T9 sequence (Q92796 221-321, limits assumed, looked up): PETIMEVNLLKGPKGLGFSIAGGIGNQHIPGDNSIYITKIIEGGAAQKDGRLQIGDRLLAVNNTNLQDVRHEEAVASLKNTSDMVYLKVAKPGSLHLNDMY

[28] = molecular target: TJP1_2, Q07157
Sequence of TJP1_2, Q07157 (Q07157 181-274): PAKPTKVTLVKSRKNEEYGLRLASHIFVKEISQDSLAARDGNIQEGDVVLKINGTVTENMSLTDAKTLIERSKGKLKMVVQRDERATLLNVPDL

[29] = plain residues with an end cap or a label only (N-terminal biotin on a linker: ttds)
[30] = plain residues with an end cap or a label only (N-terminal biotin on a linker: ado-ado)
[31] = plain residues with an end cap or a label only (N-terminal biotin on a linker: ahx)

In the case of KQVVPFSSSV [GDA, Q9Y2T3], the pKd [1, 29] is reported as “below the threshold”, the pKd [2, 29] is reported as “below the threshold” and the pKd [3, 29] is reported as 3.74. For the same binder, the pKd [4, 29] was “below the threshold”, the pKd [5, 29] was 3.52 and the pKd [6, 29] was “below the threshold”. The pKd [7, 29] was “below the threshold”, the pKd [8, 29] was “below the threshold” and the pKd [9, 29] was “below the threshold”. For the same binder, the pKd [10, 29] was “below the threshold”, the pKd [11, 29] was “below the threshold” and the pKd [12, 29] was “below the threshold”. The pKd [13, 29] was 3.52, the pKd [14, 29] was “below the threshold” and the pKd [15, 29] was “below the threshold”. The pKd [16, 29] was “below the threshold”, the pKd [17, 29] was 3.83 and the pKd [18, 29] was “below the threshold”. The pKd [19, 29] was 3.65, the pKd [20, 29] was 3.89 and the pKd [21, 29] was “below the threshold”. It also gave a pKd [22, 29] of 3.98, a pKd [23, 29] of 3.88 and a pKd [24, 29] of 4.38. The pKd [25, 29] was “below the threshold”, the pKd [26, 29] was “below the threshold” and the pKd [27, 29] was 4.38. The pKd [28, 29] was “below the threshold”.

PDSYHRRDFW [U2AF2, P26368] was tested, and the pKd [1, 30] was “below the threshold”, the pKd [2, 30] was “below the threshold” and the pKd [3, 30] was “below the threshold”. The pKd [4, 30] was “below the threshold”, the pKd [5, 30] was “below the threshold” and the pKd [6, 30] was “below the threshold”. For the same binder, the pKd [7, 30] was “below the threshold”, the pKd [8, 30] was “below the threshold” and the pKd [9, 30] was “below the threshold”. For the same binder, the pKd [10, 30] was “below the threshold”, the pKd [11, 30] was “below the threshold” and the pKd [12, 30] was “below the threshold”. The pKd [13, 30] was “below the threshold”, the pKd [14, 30] was “below the threshold” and the pKd [15, 30] was “below the threshold”. The pKd [16, 30] was 3.56, the pKd [17, 30] was 3.62 and the pKd [18, 30] was “below the threshold”. For the same binder, the pKd [19, 30] was 3.6, the pKd [20, 30] was “below the threshold” and the pKd [21, 30] was “below the threshold”. For the same binder, the pKd [22, 30] was 3.52, the pKd [23, 30] was “below the threshold” and the pKd [24, 30] was “below the threshold”. For the same binder, the pKd [25, 30] was “below the threshold”, the pKd [26, 30] was “below the threshold” and the pKd [27, 30] was “below the threshold”. It also gave a pKd [28, 30] of 3.72.

For GARVSKETPL [MAPK12, P53778], the pKd [1, 29] was “below the threshold”, the pKd [2, 29] was “below the threshold” and the pKd [3, 29] was “below the threshold”. The pKd [4, 29] was “below the threshold”, the pKd [5, 29] was “below the threshold” and the pKd [6, 29] was “below the threshold”. The pKd [7, 29] was “below the threshold”, the pKd [8, 29] was 3.55 and the pKd [9, 29] was “below the threshold”. The pKd [10, 29] was “below the threshold”, the pKd [11, 29] was “below the threshold” and the pKd [12, 29] was “below the threshold”. The pKd [13, 29] was “below the threshold”, the pKd [14, 29] was “below the threshold” and the pKd [15, 29] was 3.76. The pKd [16, 29] was “below the threshold”, the pKd [17, 29] was “below the threshold” and the pKd [18, 29] was “below the threshold”. The pKd [19, 29] was “below the threshold”, the pKd [20, 29] was 4.25 and the pKd [21, 29] was “below the threshold”. The pKd [22, 29] was 4.34, the pKd [23, 29] was “below the threshold” and the pKd [24, 29] was 4.71. The pKd [25, 29] was “below the threshold”, the pKd [26, 29] was “below the threshold” and the pKd [27, 29] was 4.28. The pKd [28, 29] was “below the threshold”.

With KDECVIATEV [DLL1, O00548] the pKd [1, 31] was “below the threshold”, the pKd [2, 31] was “below the threshold” and the pKd [3, 31] was 5.32. For the same binder, the pKd [4, 31] was “below the threshold”, the pKd [5, 31] was “below the threshold” and the pKd [6, 31] was “below the threshold”. For the same binder, the pKd [7, 31] was “below the threshold”, the pKd [8, 31] was “below the threshold” and the pKd [9, 31] was “below the threshold”. For the same binder, the pKd [10, 31] was “below the threshold”, the pKd [11, 31] was “below the threshold” and the pKd [12, 31] was “below the threshold”. For the same binder, the pKd [13, 31] was 3.87, the pKd [14, 31] was “below the threshold” and the pKd [15, 31] was “below the threshold”. The pKd [16, 31] was “below the threshold”, the pKd [17, 31] was 3.93 and the pKd [18, 31] was “below the threshold”. The pKd [19, 31] was “below the threshold”, the pKd [20, 31] was 3.62 and the pKd [21, 31] was “below the threshold”. It also gave a pKd [22, 31] of 4.44, a pKd [23, 31] of 3.59 and a pKd [24, 31] of 4.37. The pKd [25, 31] was “below the threshold”, the pKd [26, 31] was “below the threshold” and the pKd [27, 31] was 4.52. For the same binder, the pKd [28, 31] was “below the threshold”.
